# Article PMC3253889 (Proteomics, 2011)
# Assays:
# [1] = target: T1, human lymphotoxin alpha homo-trimer (LT-α3) (human, UniProt P01374); assay: SPR
# human LT-α3-biotin = human LT-α3-biotin (human, UniProt P01374, biotin); assay: ELISA
# [2] = target: T1, human lymphotoxin alpha homo-trimer …; assay: ELISA
# T1 sequence (P01374 35-205): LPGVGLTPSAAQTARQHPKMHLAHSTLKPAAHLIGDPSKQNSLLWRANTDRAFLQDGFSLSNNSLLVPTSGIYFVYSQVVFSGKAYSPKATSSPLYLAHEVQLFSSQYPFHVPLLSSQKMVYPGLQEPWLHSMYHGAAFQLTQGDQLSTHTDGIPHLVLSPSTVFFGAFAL
# human LT-α3-biotin, sequence (P01374 35-205): as above
Binder,Kd [1] [nM],IC50 (human LT-α3-biotin) [nM],EC50 [2] [nM]
"LT-3F12 anti-LT-α monoclonal antibody purified from mouse ascites (antibody, V domains shown) VH: QGQLQQSGAELMKPGASVKISCKATGYTFSSYWIEWVKQRPGHGLEWIGEISPGSGSTNYNEEFKGKATFTADKSSNTAYIQLSSLTSEDSAVYYCADGYHGYWGQGTTLTVSS VL: DIVMSQSPSSLAVSVGEKVTMSCKSSQSLLYSTNQKNFLAWYQQKPGQSPKLLIYWASTRDSGVPDRFTGSGSGTDFTLTISSVKAEDLAVYYCQQYYSYPRTFGGGTKLEIK",0.3,47,0.018
"LT-3F12 rescued recombinant chimeric antibody (antibody, V domains shown) VH: QGQLQQSGAELMKPGASVKISCKATGYTFSSYWIEWVKQRPGHGLEWIGEISPGSGSTNYNEEFKGKATFTADKSSNTAYIQLSSLTSEDSAVYYCADGYHGYWGQGTTLTVSS VL: DIVMSQSPSSLAVSVGEKVTMSCKSSQSLLYSTNQKNFLAWYQQKPGQSPKLLIYWASTRDSGVPDRFTGSGSGTDFTLTISSVKAEDLAVYYCQQYYSYPRTFGGGTKLEIK",0.3,,0.037
